± gives the uncertainty stated by the source.
Experiment: self-splicing fitness, log relative to wild type (ln ratio); higher = more splicing; Tetrahymena group I intron in knt gene, E. coli kanamycin selection, DiMSum; sequences stand for … in CUCUCU…GGAGGGAAAAGUUAUCAGGCAUGCACCUGGUAGCUAGUCUUUAAACCAAUAGAUUGCAUCGGUUUAAAAGGCAAGACCGUCAAAUUGCGGGAAAGGGGUCAACAGCCGUUCAGUACCAAGUCUCAGGGGAAACUUUGAGAUGGCCUUGCAAAGGGUAUGGUAAUAAGCUGACGGACAUGGUCCUAACCACGCAGCCAAGUCCUAAGUCAACAGAUCUUCUGUUGAUAUGGAUGCAGUUCACAGACUAAAUGUCGGUCGGGGAAGAUGUAUUCUUCUCAUAAGAUAUAGUCGGACCUCUCCUUAAUGGGAGCUAGCGGAUGAAGUGAUGCAACACUGGAGCCGCUGGGAACUAAUUUGUAUGCGAAAGUAUAUUGAUUAGUUUUGGAGUACUCGUGGUCG
In short: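 Pooled colonies went to amplicon sequencing on an Illumina HiSeq 2500 after six replicate transformations. The plates were LB agar with 100 μg/mL carbenicillin, 50 μM IPTG and 0.2% rhamnose, with or without 25 μg/mL kanamycin, incubated overnight at 37°C or 30°C. The E. coli BL21(DE3) library had all eight P1ex-region intron nucleotides randomised, the intron placed in the knt kanamycin-resistance gene on pET-22b(+). DiMSum fitness is the error-weighted combination of replicate fold changes, kanamycin against none, normalised to wild type.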

Row | Sequence | self-splicing fitness (ln) (30 °C) | self-splicing fitness (ln) (37 °C)
1 | AGCCAGCAAUAUUACGCUAU | -1.55 ± 0.12 | -0.833 ± 0.13
2 | GGUGAGCAAUAUUACGAAGU | -2.25 ± 0.23 | -1.67 ± 0.35
3 | GGGAAGCAAUAUUACGCCAA | -1.66 ± 0.095 | -0.896 ± 0.1
4 | GCUCAGCAAUAUUACGCCUU | 0.0207 ± 0.11 | 0.141 ± 0.14
5 | GUCCAGCAAUAUUACGGAGG | -1.76 ± 0.06 | -1.17 ± 0.078
6 | CAGAAGCAAUAUUACGCGCC | -2.83 ± 0.25 | -1.34 ± 0.18
7 | CCACAGCAAUAUUACGAAAU | -4.25 ± 0.24 | -2.02 ± 0.17
8 | UAGUAGCAAUAUUACGUUUU | -3.14 ± 0.14 | -2.27 ± 0.16
9 | AAAAAGCAAUAUUACGCCGA | -1.19 ± 0.088 | -1.01 ± 0.099
10 | ACCCAGCAAUAUUACGACAU | -0.995 ± 0.011 | -0.241 ± 0.032
11 | CCAUAGCAAUAUUACGUGUA | -4.27 ± 0.25 | -2.71 ± 0.22
12 | CGUUAGCAAUAUUACGCUAA | – | 0.0733 ± 0.29
13 | CCGAAGCAAUAUUACGAUAA | -2.83 ± 0.12 | -2.96 ± 0.25
14 | AGGGAGCAAUAUUACGGCUA | -2.09 ± 0.21 | -2.17 ± 0.18
15 | UGGCAGCAAUAUUACGCUGA | -2.79 ± 0.21 | -1.17 ± 0.12
16 | GCGUAGCAAUAUUACGACAG | -2.66 ± 0.48 | -0.456 ± 0.44
17 | GAGUAGCAAUAUUACGGAAA | -3.15 ± 0.17 | -2.03 ± 0.12
18 | UAACAGCAAUAUUACGCCCG | -0.202 ± 0.16 | -0.59 ± 0.18
19 | UUCUAGCAAUAUUACGACUG | -1.64 ± 0.17 | -0.702 ± 0.2
20 | CUCGAGCAAUAUUACGAUAU | -4.2 ± 0.31 | -1.91 ± 0.25
21 | UAUGAGCAAUAUUACGUUUC | -3.66 ± 0.4 | -1.67 ± 0.32

Row | Sequence | self-splicing fitness (ln) (30 °C) | self-splicing fitness (ln) (37 °C)
22 | CUCUAGCAAUAUUACGGUGG | -2.88 ± 0.15 | -2.48 ± 0.21
23 | GGCCAGCAAUAUUACGACGA | -2.9 ± 0.16 | -1.98 ± 0.12
24 | ACUUAGCAAUAUUACGCUAC | -2.59 ± 0.34 | -1.9 ± 0.33
25 | UAGGAGCAAUAUUACGAUUU | -2.44 ± 0.15 | -1.4 ± 0.24
26 | CUAAAGCAAUAUUACGGAGA | -2.83 ± 0.16 | -2.79 ± 0.29
27 | GGAAAGCAAUAUUACGCAAG | -1.26 ± 0.14 | -1.13 ± 0.18
28 | CUGAAGCAAUAUUACGUGUA | -4.08 ± 0.24 | -2.12 ± 0.2
29 | CUUGAGCAAUAUUACGGGUA | -3.78 ± 0.33 | -2.53 ± 0.24
30 | GGUAAGCAAUAUUACGUCUC | -1.04 ± 0.13 | -1.27 ± 0.16
31 | ACAGAGCAAUAUUACGAUUA | -3.25 ± 0.23 | -2.38 ± 0.26
32 | AAAGAGCAAUAUUACGAUAU | -3.17 ± 0.23 | -1.97 ± 0.16
33 | UGUAAGCAAUAUUACGCCUC | -3.28 ± 0.32 | -2.25 ± 0.24
34 | ACAUAGCAAUAUUACGGUAA | -2.88 ± 0.15 | -1.52 ± 0.12
35 | UGCCAGCAAUAUUACGAUGU | -4.66 ± 0.26 | -1.34 ± 0.15
36 | UCAGAGCAAUAUUACGACAA | – | -2.96 ± 0.49
37 | UGUAAGCAAUAUUACGGGUU | -3.86 ± 0.27 | -2 ± 0.2
38 | UUGUAGCAAUAUUACGCACA | -0.174 ± 0.17 | -0.658 ± 0.22
39 | AAGUAGCAAUAUUACGUUUC | -3.93 ± 0.33 | -2.03 ± 0.21
40 | CCUUAGCAAUAUUACGGUAC | -4.06 ± 0.21 | -2.44 ± 0.19
41 | ACCUAGCAAUAUUACGGCCU | -0.404 ± 0.069 | -0.963 ± 0.075
42 | AUAAAGCAAUAUUACGCUUG | -0.77 ± 0.082 | -0.368 ± 0.11

From the supplement of paper PMC7877785
